Our source for the binding result and binding signal values is article PMC4797271, “The quorum-sensing regulator ComA from Bacillus subtilis activates transcription using topologically distinct DNA motifs”.

T1: ComA (Bacillus subtilis, UniProt P14204 1-214)
T1 sequence: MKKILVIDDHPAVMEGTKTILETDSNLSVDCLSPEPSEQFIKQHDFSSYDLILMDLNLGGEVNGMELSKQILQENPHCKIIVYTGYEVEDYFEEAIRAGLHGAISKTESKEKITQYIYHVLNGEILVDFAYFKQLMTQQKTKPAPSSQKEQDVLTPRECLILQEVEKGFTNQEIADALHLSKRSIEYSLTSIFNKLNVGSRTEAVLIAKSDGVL

T2: ComA;RNA polymerase alpha subunit (Bacillus subtilis;Bacillus subtilis, UniProt P14204;P20429 1-214;1-314, |)
T2 sequence 1: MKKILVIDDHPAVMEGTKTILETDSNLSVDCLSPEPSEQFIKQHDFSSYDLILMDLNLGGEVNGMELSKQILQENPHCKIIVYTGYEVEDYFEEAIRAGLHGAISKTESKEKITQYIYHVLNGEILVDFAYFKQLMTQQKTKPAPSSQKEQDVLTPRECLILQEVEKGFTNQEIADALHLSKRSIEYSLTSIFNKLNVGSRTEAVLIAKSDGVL
T2 sequence 2: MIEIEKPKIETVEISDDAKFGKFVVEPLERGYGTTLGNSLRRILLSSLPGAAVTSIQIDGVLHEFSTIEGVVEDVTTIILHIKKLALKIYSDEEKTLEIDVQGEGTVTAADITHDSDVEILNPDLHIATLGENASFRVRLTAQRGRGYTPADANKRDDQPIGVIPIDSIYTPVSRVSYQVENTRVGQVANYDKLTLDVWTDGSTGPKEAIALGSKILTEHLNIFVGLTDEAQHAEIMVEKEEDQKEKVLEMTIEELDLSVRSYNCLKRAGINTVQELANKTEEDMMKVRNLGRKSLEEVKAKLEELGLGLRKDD

B1: PIR n8 (dsDNA)
DNA 1: ATGTTTAGTGGAAATGATTGCGGCATCTCCACCGCAAAAAATATTGCTGTAAAT
DNA 2: ATTTACAGCAATATTTTTTGCGGTGGAGATGCCGCAATCATTTCCACTAAACAT
B2: PDR n9 (dsDNA)
DNA 1: AAACTGGAATCGAAACTTTGCGGCCATTACCATTGCGGTGATAAAAACATTTTT
DNA 2: AAAAATGTTTTTATCACCGCAATGGTAATGGCCGCAAAGTTTCGATTCCAGTTT
B3: PIR n10 (dsDNA)
DNA 1: ATGTTTAGTGGAAATGATTGCGGCATCTCCACACCGCAAAAAATATTGCTGTAAAT
DNA 2: ATTTACAGCAATATTTTTTGCGGTGTGGAGATGCCGCAATCATTTCCACTAAACAT
B4: PIR n3 (dsDNA)
DNA 1: ATGTTTAGTGGAAATGATTGCGGCATCCGCAAAAAATATTGCTGTAAAT
DNA 2: ATTTACAGCAATATTTTTTGCGGATGCCGCAATCATTTCCACTAAACAT
B5: Ppel DR1 only (dsDNA)
DNA 1: CGGCCTTTTGGTTTTTTTGCGGTCTGGCTGTTGGGAGTCTTTAGAAT
DNA 2: ATTCTAAAGACTCCCAACAGCCAGACCGCAAAAAAACCAAAAGGCCG
B6: Ppel DR2 only (dsDNA)
DNA 1: CGGCCGGTTTTTTTTTTTGCGGTCTTTGCGGTGGGAGTCTTTAGAAT
DNA 2: ATTCTAAAGACTCCCACCGCAAAGACCGCAAAAAAAAAAACCGGCCG
B7: PDR n2 (dsDNA)
DNA 1: AAACTGGAATCGAAACTTTGCGGCCTTGCGGTGATAAAAACATTTTT
DNA 2: AAAAATGTTTTTATCACCGCAAGGCCGCAAAGTTTCGATTCCAGTTT
B8: PIR n6 (dsDNA)
DNA 1: ATGTTTAGTGGAAATGATTGCGGCATCTCCCGCAAAAAATATTGCTGTAAAT
DNA 2: ATTTACAGCAATATTTTTTGCGGGAGATGCCGCAATCATTTCCACTAAACAT
B9: Ppel DR3 only (dsDNA)
DNA 1: CGGCCGGTTTTTTTTTGGCTGTTCTTTGCGGTGGGATTTTGCAGAAT
DNA 2: ATTCTGCAAAATCCCACCGCAAAGAACAGCCAAAAAAAAACCGGCCG
B10: PDR n3 (dsDNA)
DNA 1: AAACTGGAATCGAAACTTTGCGGCCATTGCGGTGATAAAAACATTTTT
DNA 2: AAAAATGTTTTTATCACCGCAATGGCCGCAAAGTTTCGATTCCAGTTT
B11: PDR n10 (dsDNA)
DNA 1: AAACTGGAATCGAAACTTTGCGGCCATTACCATTTGCGGTGATAAAAACATTTTT
DNA 2: AAAAATGTTTTTATCACCGCAAATGGTAATGGCCGCAAAGTTTCGATTCCAGTTT
B12: PDR n1 (dsDNA)
DNA 1: AAACTGGAATCGAAACTTTGCGGCTTGCGGTGATAAAAACATTTTT
DNA 2: AAAAATGTTTTTATCACCGCAAGCCGCAAAGTTTCGATTCCAGTTT
B13: PIR n2 (dsDNA)
DNA 1: ATGTTTAGTGGAAATGATTGCGGCACCGCAAAAAATATTGCTGTAAAT
DNA 2: ATTTACAGCAATATTTTTTGCGGTGCCGCAATCATTTCCACTAAACAT
B14: PDR n7 (dsDNA)
DNA 1: AAACTGGAATCGAAACTTTGCGGCCATTACTTGCGGTGATAAAAACATTTTT
DNA 2: AAAAATGTTTTTATCACCGCAAGTAATGGCCGCAAAGTTTCGATTCCAGTTT
B15: PIR n1 (dsDNA)
DNA 1: ATGTTTAGTGGAAATGATTGCGGCCCGCAAAAAATATTGCTGTAAAT
DNA 2: ATTTACAGCAATATTTTTTGCGGGCCGCAATCATTTCCACTAAACAT
B16: Ppel IR-DR core (dsDNA)
DNA 1: GGATTTTGCAGAATGCCGCAATAGGATAGCGGAACATTTTCGGTTCTG
DNA 2: CAGAACCGAAAATGTTCCGCTATCCTATTGCGGCATTCTGCAAAATCC
B17: PDR n15 (dsDNA)
DNA 1: AAACTGGAATCGAAACTTTGCGGCCATTACCATCTACTTTGCGGTGATAAAAACATTTTT
DNA 2: AAAAATGTTTTTATCACCGCAAAGTAGATGGTAATGGCCGCAAAGTTTCGATTCCAGTTT
B18: PIR n14 (dsDNA)
DNA 1: ATGTTTAGTGGAAATGATTGCGGCATCTCCACATACCCCGCAAAAAATATTGCTGTAAAT
DNA 2: ATTTACAGCAATATTTTTTGCGGGGTATGTGGAGATGCCGCAATCATTTCCACTAAACAT
B19: PDR G3T (dsDNA)
DNA 1: AAACTGGAATCGAAACTTTGCGGCCATTTTTCGGTGATAAAAACATTTTT
DNA 2: AAAAATGTTTTTATCACCGAAAAATGGCCGCAAAGTTTCGATTCCAGTTT
B20: PIR C4A (dsDNA)
DNA 1: ATGTTTAGTGGAAATGATTGCGGCATCCCGAAAAAAATATTGCTGTAAAT
DNA 2: ATTTACAGCAATATTTTTTTCGGGATGCCGCAATCATTTCCACTAAACAT
B21: PDR ex7 (RE4 T1C) (dsDNA)
DNA 1: AAACTGGAATCGAAACTTTGCGGCCATTCTGCGGTGATAAAAACATTTTT
DNA 2: AAAAATGTTTTTATCACCGCAGAATGGCCGCAAAGTTTCGATTCCAGTTT
B22: PDR (perfect direct repeat) (dsDNA)
DNA 1: AAACTGGAATCGAAACTTTGCGGCCATTTTGCGGTGATAAAAACATTTTT
DNA 2: AAAAATGTTTTTATCACCGCAAAATGGCCGCAAAGTTTCGATTCCAGTTT

One data set addresses T1, ComA. In words: EMSA; EMSA: 10 mM HEPES pH 7.6, 2 mM MgCl2, 0.1 mM EDTA, 200 mM KCl, 5 mM DTT, 10% glycerol; 10 ng DNA in 15 ul, 20 min, room temperature. The note with it: protein: recombinant; tags: N-terminal His6 (from expression primer); chain copies: 2; label: 5' biotin on strand 1; blunt. (In general: A gel shift assay detects complexes by their altered migration in electrophoresis.)
In the case of B1, the binding result is given as “no binding”.
Turning to B2, the binding result is given as “no binding”.
B3: the binding result is “no binding”.
On the same count and under the same terms, to B4 belongs “no binding”; to B5, “no binding”; to B6, “no binding”.
Same read-out and setting: to B7 belongs “no binding”.
Take B8: the binding result is reported as “no binding”.
On to B9, for which the binding result is “no binding”.
As to B10, the binding result was “no binding”.
As to B11, the binding result is recorded as “no binding”.
For B12, the binding result is on record as “no binding”.
For B13, the binding result was “no binding”.
Still for that read-out and setting: for B14 the value was “no binding”; for B15, “no binding”.
Turning to B16, the binding result is given as “binds”.
On the same count and under the same terms, to B17 belongs “no binding”; to B18, “no binding”.

Another data set has as its target T1, ComA. The description is as above. The note with it: protein: recombinant; tags: N-terminal His6 (from expression primer); chain copies: 2; label: 5' biotin on strand 1; blunt. The source holds these as a separate data set.
As for B19, the binding signal was roughly 2 fold reduced affinity.
Still for that read-out and setting: for B20 the value was roughly 2 fold reduced affinity.

The next data set addresses T1, ComA. Described as above. The note with it: protein: recombinant; tags: N-terminal His6 (from expression primer); chain copies: 2; label: 5' biotin on strand 1; blunt. This is another data set of the same source.
With B21, the binding signal was roughly 2 fold reduced affinity.

A further data set deals with ComA;sigma factor sigmaA (Bacillus subtilis;Bacillus subtilis, UniProt P14204;P06224 1-214;1-371, |). In words: EMSA; supershift, lower mobility than PIR; EMSA: 10 mM HEPES pH 7.6, 2 mM MgCl2, 0.1 mM EDTA, 200 mM KCl, 5 mM DTT, 10% glycerol; 10 ng DNA in 15 ul, 20 min, room temperature. The note with it: protein: recombinant;recombinant; tags: N-terminal His6 (from expression primer);N-terminal His6 (from expression primer); chain copies: 2;1; label: 5' biotin on strand 1; blunt.
ComA;sigma factor sigmaA, sequence (P06224 whole entry, one chain of several): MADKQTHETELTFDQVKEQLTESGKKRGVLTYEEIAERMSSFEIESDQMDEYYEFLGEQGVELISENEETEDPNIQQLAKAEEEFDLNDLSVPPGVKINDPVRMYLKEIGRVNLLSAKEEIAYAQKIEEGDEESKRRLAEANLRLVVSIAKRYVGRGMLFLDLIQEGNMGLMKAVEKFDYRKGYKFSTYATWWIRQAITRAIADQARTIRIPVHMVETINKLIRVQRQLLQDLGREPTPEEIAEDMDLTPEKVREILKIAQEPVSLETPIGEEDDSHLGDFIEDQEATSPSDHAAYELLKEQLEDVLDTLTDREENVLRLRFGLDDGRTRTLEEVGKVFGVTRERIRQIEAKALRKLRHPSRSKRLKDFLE
With B22, the binding result is recorded as “binds”.

Another data set concerns the target T1, ComA. In words: EMSA; complex at 1.2 uM or more; affinity similar to PIR; EMSA: 10 mM HEPES pH 7.6, 2 mM MgCl2, 0.1 mM EDTA, 200 mM KCl, 5 mM DTT, 10% glycerol; 10 ng DNA in 15 ul, 20 min, room temperature. The note with it: protein: recombinant; tags: N-terminal His6 (from expression primer); chain copies: 2; label: 5' biotin on strand 1; blunt.
Consider B22, for which the binding result is “binds”.

The target of another data set is T2, ComA;RNA polymerase alpha subunit. In words: EMSA; supershift; EMSA: 10 mM HEPES pH 7.6, 2 mM MgCl2, 0.1 mM EDTA, 200 mM KCl, 5 mM DTT, 10% glycerol; 10 ng DNA in 15 ul, 20 min, room temperature. The note with it: protein: recombinant;recombinant; tags: N-terminal His6 (from expression primer);N-terminal His6 (from expression primer); label: 5' biotin on strand 1; blunt.
Take B22: the binding result is on record as “binds”.
